Reference: PMC10581246, “The presence of benzene ring activating CoA ligases for aromatics degradation in the ANaerobic MEthanotrophic (ANME) archaea” (Microbiology Spectrum, 2023)

Experiments:
Assay in all cases: purified protein
Details in all cases: apparent, 1 mM ATP, 0.5 mM CoA, 10 mM MgCl2, 50 mM Tris-HCl pH 8.0, room temperature
[1] = system: O=C(O)c1ccc(O)cc1
[2] = system: O=C(O)c1cccc(O)c1
[3] = system: O=C(O)c1ccccc1
[4] = system: O=C(O)Cc1ccc(O)c(O)c1
[5] = system: O=C(O)Cc1ccc(O)cc1
[6] = system: O=C(O)Cc1cccc(O)c1
[7] = system: O=C(O)Cc1ccccc1

| Substance | Km [1] | kcat [1] | Km [2] | kcat [2] | Km [3] | kcat [3] | Km [4] | kcat [4] | Km [5] | kcat [5] | Km [6] | kcat [6] | Km [7] | kcat [7] |
| --- | --- | --- | --- | --- | --- | --- | --- | --- | --- | --- | --- | --- | --- | --- |
| BadAANME (ANME-2 cluster archaeon) | 55.08 ± 6.910 µM | 0.1086 ± 0.02963 s⁻¹ | 76.97 ± 14.69 µM | 0.2197 ± 0.01127 s⁻¹ | 12.98 ± 1.563 µM | 0.1127 ± 0.002522 s⁻¹ | – | – | – | – | – | – | – | – |
| PaaKANME (PaaK1ANME) (ANME-2 cluster archaeon) | – | – | – | – | – | – | 42.80 ± 15.03 µM | 0.0976 ± 0.00722 s⁻¹ | 49.15 ± 12.54 µM | 0.148 ± 0.00881 s⁻¹ | 68.87 ± 9.425 µM | 0.254 ± 0.00895 s⁻¹ | 180.6 ± 32.18 µM | 0.153 ± 0.00755 s⁻¹ |
